According to the DeepSol protein solubility set:

Experiment: soluble on expression in E. coli; label from the status in PepcDB or PDB records

Sequence | soluble on expression in E. coli
MGSDKIHHHHHHMTPNIYQQLGLKKVINACGKMTILGVSSVAPEVMQATARAASAFVEIDALVEKTGELVSRYTGAEDSYITSCASAGIAIAVAAAITHGDRARVALMPDSSGMANEVVMLRGHNVDYGAPVTSAIRLGGGRIVEVGSSNLATRWQLESAINEKTAALLYVKSHHCVQKGMLSIDDFVQVAQANHLPLIVDAAAEEDLRGWVASGADMVIYSGAKAFNAPTSGFITGRKTWIAACKAQHQGIARAMKIGKENMVGLVYALENYHQGQTTVTAAQLQPVAEAISAIHGLYADIEQDEAGRAIWRIRVRVNASELGLNAQDVEAQLRGGEIAIYARKYQLHQGVFSLDPRTVAEGEMALIVARLREIAEHAAD | not soluble
MMDDILKQIKAGEVSGVQFKERILDKYDIACELVAFSNSHGGKLVVGIKDKTGETNALSYSEVQETTNLLSDIASENVVPSILIKIDTVEVEDGNLVVATVKEGLNKPYHDNKGIVWVKNGADKRKVFDNAELAEMMTDCGSFAPDEAGVRDATVNDLDATTIKQFLGNRFERVLDKKGLTGDAFNEASLDMICSAIAKGHDCEKILRNLRFIRPDGTLTVAAMLLFGKYTQRWMPMMTAKCICFAGNSVGSKVFRDKVNDADMEGNLLHQYDTIMDFFTRNLHNVQVGDEFNSMGKLEIPYTSLVEFTVNSLVHRSLNMKAPVRIFIFDNRVEIHSPGALPNGLTIDDIKAGTSMPRNTFLFNNAIYLLPYTGVGSGITRALDEDINVTFMNNDKAQEFVITVWRGESNQVEDLDTGLRHSDTDLDTGLRHSDTDLDTKRVTLTNKEKDIVNFCSVPRTTKEILDRIGVSMHSKNRERYITSLVAAGYLQMTNPDNPTASNQKYKKVNKRLEHHHHHH | soluble
MSLDVSAYPFFRRDMSWLSFNERVLMEAADRTLPVYDRIKFLSIFSSNLEEFYTVRVAYHQAVLQKRRDRSEAEEDSDADAHILQAIRETVIRQDELYYRIFYDQILPTLEEHGIRLRTHAPTHPDHKAYLRRFFHEEIFPLLYPMLLLPSKVRTFIRSGRVYLAVRLKEKETDEAYSYALLNVPTDGLPRFVELPRLQTDTFYYYSFLEDIIKEHLDVVFPGYEVMDSYSIKVSRDADLLLDAQRPEDLPGEIRKKVKTRKLGAPTRFMYDGRMPDEVLRYICSSCDIDPEEAIRSGNYVNLQDLAMLPNPFAPRLETLTPEPLLSKHLEQAPSLMEGIRRKDYLIHVPYYTYDYVVRLLMEAAISPDVSEIRLTQYRVAENSSIISALEAAAQSGKKVSVFVELKARFDEENNLRLSERMRRSGIRIVYSMPGLKVHAKTALILYHTPAGERPQGIALLSTGNFNETTARIYSDTTLMTANTDIVHDVYRLFRILDGDPEPARFSRLLVARYNMGEAITNLIEREIENVKRGKRGYMLLKMNGLQDKNVITQLYRASEAGVEIDLIVRGICCLVPDMPQSRNIRVTRLVDMYLEHSRIWCFHNGGKEEVFISSADWMKRNLYNRIETACPVLDPTLRREIIDILEIQLRDNIKACRIDSSLNNIYKHNSDEKPVRAQAAIYRYLKGKEETTPAAKEGHHHHHH | soluble
MGHHHHHHSHMSEESDMDKAIKETSILEEYSINWTQKLGAGISGPVRVCVKKSTQERFALKILLDRPKARNEVRLHMMCATHPNIVQIIEVFANSVQFPHESSPRARLLIVMEMMEGGELFHRISQHRHFTEKQASQVTKQIALALRHCHLLNIAHRDLKPENLLFKDNSLDAPVKLCDFGFAKIDQGDLMTPQFTPYYVAPQVLEAQRRHQKEKSGIIPTSPTPYTYNKSCDLWSLGVIIYVMLCGYPPFYSKHHSRTIPKDMRRKIMTGSFEFPEEEWSQISEMAKDVVRKLLKVKPERRLTIEGVLDHPWLNSTEALDNVLPSAQLMMDKAVVAGIQQAHAEQLANMRIQDLKVSLKPLHSVNNPILRKRKLLGTKPKDSVYIHDHENGAEDSNVALEKLRDVIAQCILPQAGENEDEKLNEVMQEAWKYNRECKLLRDTLQSFSWNGRGFTDKVDRLKLAEIVKQVIEEQTTSHESQ | not soluble
MIAWYGMALDQAVVNRPVKAKLYSKIVDSVECTACSRYCRLKPGKTGFCGVRKNIDGDLYLLVYGLPAAINVDPIEKKPVLHMYPGARIFSLSTVGCSFACQYCQNYDISQRRTITGYHYDPEEIVEEALSMGCQGIAYTYNEPSIFMEYAHDIGVIARRHGLINIFVTNGFETPEAIDYARDFLDAATVDFKGNASDEFYRKYISVPSARPIFETLANLKSAGIHVEVTDLVVPEVGDRLEDARTMLERIMDILGEYVPISFLRFHPDYRMMDLPDTPVETLRKHHDLAVSMGFKYVYIGNVPGYGENTYCPNCGNLLIERFVFSSKVIGLDRNGRCKKCGYDPQIPLMKEKRADYIS | not soluble
MSVDMNSQGSDSNEEDYDPNCEEEEEEEEDDPGDIEDYYVGVASDVEQQGADAFDPEEYQFTCLTYKESEGALNEHMTSLASVLKVSHSVAKLILVNFHWQVSEILDRYKSNSAQLLVEARVQPNPSKHVPTSHPPHHCAVCMQFVRKENLLSLACQHQFCRSCWEQHCSVLVKDGVGVGVSCMAQDCPLRTPEDFVFPLLPNEELREKYRRYLFRDYVESHYQLQLCPGADCPMVIRVQEPRARRVQCNRCNEVFCFKCRQMYHAPTDCATIRKWLTKCADDSETANYISAHTKDCPKCNICIEKNGGCNHMQCSKCKHDFCWMCLGDWKTHGSEYYECSRYKENPDIVNQSQQAQAREALKKYLFYFERWENHNKSLQLEAQTYQRIHEKIQERVMNNLGTWIDWQYLQNAAKLLAKCRYTLQYTYPYAYYMESGPRKKLFEYQQAQLEAEIENLSWKVERADSYDRGDLENQMHIAEQRRRTLLKDFHDT | soluble
MKQTNPFVYSNDNKRYHTWNYCLREEFGQKTYKVALDGGFDCPNRDGTVAHGGCTFCSAAGSGDFAGNRALDLKVQFQQVRDKMQTKWKDGKCIAYFQAFTNTHAPVAELREKFETVLNEPGVVGLSIATRPDCLPDDVVEYLAELNERTYLWLELGLQSAHDETGRLINRAHDYDCYLEGVRKLQKHNIRICTHIINGLPKETPEMMMETAQKVVESGVDGIKIHLLHLLKGTPMVEDYKKGDLEFLTRDGYVNLVADQLEILPPEMVIHRITGDGGVDDLIGPVWSLNKFEVLNAIDAELVRRDSWQGKLYQPVEVSSK | not soluble
MSLEPDPDYVEPRLEGPQKQAASEIIEDVRKGGFHVSLIDGVTGSGKTEVYFEAVAETLRQGKQVLILLPEIALTAAFLERFQDRFGAKPAEWHSDLSPRMREKVWRQAVTGEIKVVAGARSALFLPFDNLGLIIVDEEHDPAYKQEDRVFYNARDMAVVRARIAEFPVVLVSATPSVESQVNGSSGRYNTIHLHTRFGDAAMPDLHLVDMRRHPPERGGFLSPVLLRGIGKTIEKGEQSLLFLNRRGYAPLTLCRVCGHRFQCPQCSSWLVEHRFRNQLQCHQCGHNEPTPDHCPECGTFDHLVACGPGVERIAEEVEKHFPEARTIVLSSDLMGVKRLRLELEAIVKGEADIVIGTQLVAKGHNFPLMTLVGIVDADLGLANGDPRAAERTFQLLSQVTGRAGRTGLKSHGLLQTYQPQHPVMQAIVSGDASAFYEREIVEREKAVLPPFGRLASIIVSADTRAEAETHARGLRAAAPQVTGIMLLGPAEAPLALIRGRHRFRLLVHGRRNSDMQSFLRTLLASGPKERGSVHVQLDIDPQSFLEGHHHHHH | soluble
MRLYRDRAVVLRQHKLGEADRIVTLLTRDHGLVRAVAKGVRRTRSKFGARLEPFAHIEVQLHPGRNLDIVTQVVSVDAFATDIVADYGRYTCGCAILETAERLAGEERAPAPALHRLTVGALRAVADGQRPRDLLLDAYLLRAMGIAGWAPALTECARCATPGPHRAFHIATGGSVCAHCRPAGSTTPPLGVVDLMSALYDGDWEAAEAAPQSARSHVSGLVAAHLQWHLERQLKTLPLVERFYQADRSVAERRAALIGQDIAGG | not soluble
MMNKLPHETRVVIGMSGGVDSSVAALLLKEQGYDVIGIFMKNWDDTDENGVCTATEDYNDVIEVCNQIGIPYYAVNFEKQYWDKVFTYFLDEYRAGRTPNPDVMCNKEIKFKAFLEHAIALGADYVATGHYARVAYMDGEYKMLRGVDDNKDQTYFLNQLSQEQLSKTMFPLGELKKPQIREMAKEAGLATAAKKDSTGICFIGERNFKDFLSNYLPAQPGVMQTLSGEVKGKHDGLMYYTIGQRHGLGIGGNGDPWFAVGKNLKENILYVDQGFHNELLYGDEVIATNVGWVSNKEKETEFKCTAKFRYRQEDNKVTVQIVDENTVRILCDEPIRAITPGQAVVFYDGDECLGGATIDEVYRSGKKLDYLG | not soluble
MSEMQMDCALDLMRRLPPQQIEKNLIDLIDLAPDLCEDLLSSVDQPLKIAKDKEHGKDYLLCDYNRDGDSYRSPWSNSYYPPLEDGQMPSERLRKLEIEANYAFDQYREMYYEGGVSSVYLWDLDHGFAAVILIKKAGDGSKMIRGCWDSIHVVEVQEKTTGRTAHYKLTSTAMLWLQTNKQGSGTMNLGGSLTRQQEQDANVSESSPHIANIGKMVEEMENKIRNTLNEIYFGKTKDIVNGLRSTQSLADQRQQAAMKQDLAAAILRRNVKPESN | not soluble
VLIARRPEDKHQGGLWEFPGGKVEDGEPVRAALARELEEELGIRVERARPLIQVRHDYADKHVLLDVWEVDGFSGEAHGAEGQPLAWVEPRELADYEFPAANAPIVQAARLPAHYLITPDGLEPGELISGVRKAVEAGIRLIQLRAPNMFSPEYRDLAIDIQGLCAGKAQLMLKGPLEWLGDFPAAGWHLTSAQLRKYASAGRPFPEGRLLAASCHDAEELALAASMGVEFVTLSPVQPTESHPGEPALGWDKAAELIAGFNQPVYLLGGLGPQQAEQAWEHGAQGVAGIRAFWPGGL | not soluble
MGITTNLISEVSKFYYALKYHAKFMSLGELGCYASHYSLWEKCIELNEAICILEDDITLKEDFKEGLDFLEKHIQELGYIRLMHLLYDASVKSEPLSHKNHEIQERVGIIKAYSEGVGTQGYVITPKIAKVFLKCSRKWVVPVDTIMDATFIHGVKNLVLQPFVIADDEQISTIARKEEPYSPKIALMRELHFKYLKYWQFVLEHHHHHH | soluble
MASDWRRQSTSRGIPNEGQNDEKGKPLIGRSFLLEIENRILRTNVAEGLHISGATIIDSFDDASPQCVISDHPMAQKLEKAKKDDPLFKNEKMLKIMPALLRQAVNRNIKVRTPERFLNQMNTWLDRQGKTTSATTSNSTIRGKPSFGRENSAKIERTTPRLVPRMPRVSSDQTSSRPKEERCFLRIDVPGKRPEIRNVSKESFSIVYSGRDTGFSIFKAAESSLVERRQREYDSFLKGKYEPSKKTFKFDERDNYCQFCQKTILGDRKDHERTDEHRNKARTQGITQTMERIVLNARLRAERQEAALKRNQRKSRESVMFVEKSKRANVEYEYGENEIKANWLMLKANTVEKTTEKTSILSPRRRQKRMRSLSSQGDI | not soluble
MAMVPAKSLATTCVASKRMMWQIPEKWTMEEASTVPCVYSTVYYALVVRGQMKKGEKILIHAGSGGVGQAAISVALAHGLTVFTTVGSKEKREFLLKRFPKLQERNIGNSRDTSFEQLVLRETKGRGVDLVLNSLSEEKLQASIRCLGLNGRFLEIGKFDLSNNSPLGMSVFLKNTSFHGILLDSVMEGEEEMQNQVVSLVAEGIKTGAVVPLPTSVFNDQQVEQAFRFMASGKHIGKVVIK | soluble
MGSDKIHHHHHHQPSSNRYARVDAAILSIPDEYTKKVDTFAEYINRKFKGDEAKMRAIYVWMTHRMAYNVFTTFTSRNEVYSEEKEVQETLSTRKGVCRQFALLFKTLAGKVGIKAYLIDGYGKSGNVVLPEVHEWCVAQVNGEWYFFDPTYDTGYIEDYRFVSAPDDVYFKQLPERFIQTHMPFDPLWQFLKRPYSYSEFEKGVLESGRNVPFFCWQDSLKVYDRQSWVEQLEAARSRILANGKGNDLVDYFLQLNQANTQVGKDSEAIDVYAAATDLQNRAVDSINVFIRYRKAGFRPRKAEAQVRRMIEVSEELTLRADSLINSVHTISPQYKQALLNLRESIMDLAMQIYKHKLFLERYYATKPSLRGNLLRR | not soluble
MAEPVQEELSVLAAIFCRPHEWEVLSRSETDGTVFRIHTKAEGFMDADIPLELVFHLPVNYPSCLPGISINSEQLTRAQCVTVKEKLLEQAESLLSEPMVHELVLWIQQNLRHILSQPETG | soluble
